The values that follow come from patent US20260374888 (published 2026).

Experiment [1] concerns the target T1, mouse 4-1BB (mouse, UniProt P20334).
T1 chain: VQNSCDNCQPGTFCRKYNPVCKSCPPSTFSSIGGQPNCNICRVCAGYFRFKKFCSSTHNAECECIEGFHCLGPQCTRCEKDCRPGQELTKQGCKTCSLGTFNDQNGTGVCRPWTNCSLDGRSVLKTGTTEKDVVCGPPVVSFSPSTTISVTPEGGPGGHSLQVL
Put plainly: other, cells transiently overexpressing target.

In experiment [2] the target is T2, mouse CD40 (mouse, UniProt P27512).
T2 chain: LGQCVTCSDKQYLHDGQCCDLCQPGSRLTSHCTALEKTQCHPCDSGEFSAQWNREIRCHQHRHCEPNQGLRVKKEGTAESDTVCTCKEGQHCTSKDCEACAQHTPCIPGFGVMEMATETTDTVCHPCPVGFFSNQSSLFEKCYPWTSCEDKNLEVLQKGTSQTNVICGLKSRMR
Put plainly: other, cells transiently overexpressing target.

B1: GEN1042 (CD137 arm) (antibody, V domains shown)
VH: EVQLVESGGGLVQPGRSLRLSCTASGFSLNDYWMSWVRQAPGKGLEWVGYIDVGGSLYYAASVKGRFTISRDDSKSIAYLQMNSLKTEDTAVYYCARGGLTYGFDLWGQGTLVTVSS
VL: DIVMTQSPSSLSASVGDRVTITCQASEDISSYLAWYQQKPGKAPKRLIYGASDLASGVPSRFSASGSGTDYTFTISSLQPEDIATYYCHYYATISGLGVAFGGGTKVEIK
On to B1, for which, in experiment [1], the binding result is listed as “no binding”.

B2: GEN1042 (CD40 arm) (antibody, V domains shown)
VH: EVQLVQSGAEVKKPGASVKVSCKTSGYTFTEYIMHWVRQAPGQGLEWMGGIIPNNGGTSYNQKFQGRVTMTVDKSTSTGYMELSSLRSEDTAVYYCTRREVYGRNYYALDYWGQGTLVTVSS
VL: DIQMTQSPSSLSASVGDRVTITCSASQGINNYLNWYQQKPGKAVKLLIYYTSSLHSGVPSRFSGSGSGTDYTFTISSLQPEDIATYYCQQYSNLPYTFGGGTKVEIK
B2: the binding result in experiment [2] is recorded as “no binding”.
